According to a protein production outcome set (Wang et al. 2014):

Assay: label from the status in PepcDB records

Row | Sequence | protein production
1 | MKRKMLKRLLTSAFACMFIANGLITTTVRAVGPKTGEENQVLVPNLNPTPENLEVVGDGFKITSSINLVGEEEADENAVNALREFLTANNIEINSENDPNSTTLIIGEVDDDIPELDEALNGTTAENLKEEGYALVSNDGKIAIEGKDGDGTFYGVQTFKQLVKESNIPEVNITDYPTVSARGIVEGFYGTPWTHKDRLDQIKFYGENKLNTYIYAPKDDPYHREKWREPYPENEMQRMQELIDASAENKVDFVFGISPGIDIRFDGEAGEEDFNHLIAKAESLYDMGVRSFAIYWDDIQDKSAAKHAQVLNRFNEEFVKAKGDVKPLITVPTEYDTGAMVSNGQPRTYTRIFAETVDPSIEVMWTGPGVVTNEIPLSDAQLISGIYNRNMAVWWNYPVTDYFKGKLALGPMHGLDKGLNQYVDFFTVNPMEHAELSKISIHTAADYSWNMDNYDYDKAWNRAIDMLYGDLAEDMKVFANHSTRMDNKTWAKSGREDAPELRAKMDELWNKLSSKEDASALIEELYGEFARMEEACNNLKANLPEVALEECSRQLDELITLAQGDKASLDMIVAQLNEDTEAYESAKEIAQNKLNTALSSFAVISEKVAQSFIQEALSFDLTLINPRTVKITASSEETSGENAPASFASDGDMNTFWHSKWSSPAHEGPHHLTLELDNVYEINKVKYAPRQDSKNGRITGYKVSVSLDGENFTEVKTGTLEDNAAIKFIEFDSVDAKYVRLDVTDSVSDQANGRGKFATAAEVNVHGKLKEAAEVTGSVSLEALEEVQVGENIEVGVGIDELVNAEAFAYDFTLNYDENAFEYVEAISDDGVFVNAKKIEDGKVRVLVSSLTGEPLPAKEVLAKVVLRAEAKTEGSNLSVTNSSVGDGEGLVHEIAGTEKTVNIIEGTSPEIVVNPVRDFKASEINKKNVTVTWTEPETTEGLEGYILYKDGKKVAEIGKDETSYTFKKLNRHTIYNFKIAAKYSNGEVSSKESLTLRTAR | failed
2 | MSSDAISLRAAGPGDLPGLLELYQVLNPSDPELTTQEAGAVFAAMLAQPGLTIFVATENGKPVATATLLIVPNLTRAARPYAFIENVVTLEARRGRGYGRTVVRHAIETAFGANCYKVMLLTGRHDPAVHAFYESCGFVQNKTGFQIRQD | not failed
3 | MTNGKIWLVVKPTVGVPLFLSAAVIASVVIHAAVLTTTTWLPDYYQGSAKVAAE | failed
4 | MRIGVYVCHCGLNIAGVIDVSALEEMAGELEDVVLAREVQFLCSDSGQEGIIKDIKDNKIDRVVIAACSPRLHEKTFRHVMEKADLNPYLMEMVNIREQCSWVHADDPQMATQKAFDLIRMGVAKARFLRELSATSSKASRNVLIIGGGVAGIEAALNLAEAGFPVTMVERESTIGGKMALMNEVFPTNDCSICVLAPKMTEVQNHPNITLYTYSEVTDISGSVGKFHVRVTRKPRFVLEDKCKGCVDLCSEVCPVEIENPMNYGIGKSRAIYMPIPQSVPQVVLIDPDHCVGCGLCQLACPAEAVDYEQKPEEIEFEAGAVIVSTGYQLFDASRKKEYGFGKYPDVITNMQLERMLNSAGPTGGRVLVPSTGQPPESVAFIQCVGSRDKTVGNEHCSRVCCMAALKNSQMVKERYPGTDITIHYIDIRAAGEMYEEYYARTQGMGVDFIRGKVAEVYAGEDGRPVVRYENTLESRVEEEAHDLVVLSTGYEPSKAAEGIGRMLNLARRPDRFFASAHPKMRPVDAPVSGVFLAGCASGPKEIQVSIAQGSACASKVMQLLGTGELEADPMGAHVDPDKCIGCRTCVEVCKFGKISIVDKKAVVDEVSCYGCGDCSAACPVGAIQMRNFENEQILAQVRAATAHKSQCPFVVAFLCNWCSYACADLTGMSRIHYPTNIRVIRTMCSARINPEFVLEALKGGADGVLVAGCRMDECHYIHGNFDAKKRMDVLKEIIKEIGLDPKRLRTLWISAAEGERFSNTITEFVKELEEIGPIGSELKREYTATGLEEVAK | failed
5 | MRKLWPLALLLAACGAQDVGAGLDPLRLTATSLPPAYLGEPYSASLAAEGGVRPYSFTLDGKLPEGLSFQGGRLFGVPKEKGSFPLLLTVEDAAKNSRAQRLTLTVSDPPPPRLALVLPPAQVEGPFLLLARVEGREAVGFQMEVRLADLEPDLAGLKALSPAHLLDYDPATRLLRLDMAFAKPVKDREAFRLLLTPQKPLVPRLSPKVVFYDKEGKPLGQPLPRGKPFAELLRLAQAWGREGKALKEDLDGDGKVGEADLRLLAQDYFPKPETPSPEAPGGGEGQASGEEQARLEHHHHHH | failed
6 | MRQWIAVFALVGSVAAQAGVADQAAAVSALKEGKLAMDVRSQTDYEAGTVLNAVRVDERRLVNQMKQVLSDRNAVFVIFSSTDSKADKAQEKLRAAGYFSVINGGNYEELHNALYDITDDPAE | failed
7 | MIGGSIISSNLLIRIFHGSCRKIIAFLFTILSLTLISGVLIYFVEGETGGFISRSSSVYWAITTLLTTGYGDTVLQTNFGRLVASVVKVLGFSIIVAPIVIIITEIYKSLSETSRKTKSLTISPFPLIWRYLNTQYFRML | failed
8 | MKLSAAGVEKIKPTDKRQEIPDSLCVGLYLIVQPTGKKGWQVRYRHGGVHRRMSLGAFPVLSLAGARERARQTLAAASAGTDPAAEVKAAKAPKLDGDRDKIKTLIGQFDKRHLSKLKSGAVVRRELERHVVSAWGERDVHQIGKRDVIDLLDGIADSGRVVTANRVRAYLAKFFGWCVERDILATSPAAGVKPAGKETSRARVLTDDEIRWFWTACEAEGFPWGPFGKVLLLTGQRLNEVAQMTDSEIRGDLWHLTADRTKNGRAHDVPLTGAVRAALDEVERVTDEEGRVRFIFTTTGRTPVSGFFKARAVLAEAMVGIAQKERGEPVEIPRWTFHDLRRTAATGMARLGIPVRVTEAVLNHVSGTGGGIVAVYQRHDYADEKRQALEAWARFVLSLVEGEADNVVRLQHG | failed
9 | MTENIPKSVAAMIRQPRKISPFWLLPIVAFIIGALLFFQILKEQGETIKIRFNAGDGIVAGKTIVRYQGLQIGQVKKVYFVDDLKKVEVQAQINSEAKSVLREGTTFWLVKPSASIAGVSGLDALVSGNYITLAPGNGAITNHFVAQDEQPAATVTDGDLLVHLIASDLGSITIGASVYFRKVPVGNIANYRFTEDKQKVEIDVVINKKYAHLVKQNSRFWNISGLNANISFSGLAVNVDSLASVIQGAVSFDSPEDSTLAEQASRFDLYADLKSAQRGVDVNITVPAMTSLKVNETPVFYQNTQVGVLSFIEAMPIDNKEIERVEENAMLRGRLLIDPNYTHLFREQSTILLKEPKFNLNAEQLTNIGQLLRGVYFEVKAGNGLAKRTFTVEKESDYLLSRPDMLALTFFAPKAYGVEEGQGIYYNDVKIGELLKRTLSVDGVTLQGIIFPAYRYLVGENSKFMAIAHLDVAVGLDGLRVKAGSPSHWLQGGIRLLEGKVQGVAKKQYPLYKDIDNAQAGILSDIKQPTLTLSASELEGIDKGAVVLYRNYQIGEVLNVKPQSQKFDVEVYIEPAYRQLIGNKSRFWVESAIEAELSAKGLSIQSAPLMRTLRGAISIDNGGDKMDRTLYANRIKATANKTRISLIAKDASKLFKGMAIKYMGLTIGQIETLALQNAKKQIKLTAYIEAPYYSIIAKEGSCFTAISPEVTPSGVKNIDAVLQNYIDVEAGNGGLATEFNLIDTDTNKTTYANNFPIIVETSDARGIEVNAPVLYRGLQVGIVQRLQLSELADRIQIHLAIEKQYQHLIRNNTQFWAASGYTMDISLQGVSLNSGTMAQLLKGGIEFLTPSTRVVEPQAKPNRRFLLQRKIPAKALSWDQAIAE | failed
10 | SPMPAGRPRFLRSMALSSQTREWLEKGMPTEAEAGVPIRLQERAANTAPQARAEERHTQPADAAAPHARAERGRTLQAPASTSPLYTGAVPRANRIVQQLVEAGADLANIRTMFRNMLRGEEMILSRAEQNVFLQHFPDMLPCGIDRNSELAIALREALRRADSQQAARAPARTPPRSS | not failed
11 | MEEKRLVIVGTAHVSKRSVEEVAEVIEREKPDAVAVELCPRRYHALVHGQREEISVADVIRKGNVFMLLFQLILAYFQRKVGEETGVKPGSEMLAAIEKAREAGADVLLIDRDIGLTFTRFWQKLTFVEKIKLIFHLVRSTFSGDEIEVDEMLEEDVLDMLVKEFRKISPNAAKVLIDERDVYMAANLLNALSRYNRIVAVVGAGHRKGIEEALLKLKENPV | failed
12 | MSGSNVAPEDKRMEDRKFRANIPPQTIVFCTVYQTTIGLTNSQHQKIRLASLRLPLLFFQQRQTSAAPPKEDVMNEETLKKIQSNPKYLELVHKKTSLGWTLAIVMLVIYYGYILVLAFAPSLLGKPLYQGATMTVGIPVGVCIILSAFVLTGIYVRRANQEFDPLTQQIVEEAK | failed
13 | MCGDCVEKEYPNRGNTCLENGSFLLNFTGCAVCSKRDFMLITNKSLKEEDGEEIVTYDHLCKNCHHVIARHEYTFSIMDEFQEYTMLCLLCGKAEDTISILPDDPRQMTLLF | failed
14 | MKDKRTPMNAFRPKAQTALVVALSLFMAACSNNPLMRTSAATSSDVADEIDRTLEQAEQSQRAASNVSAVPAPSAADISSQLLPPLSSSPQQDERFDVNASEVPASSFFEALVAGTRYNVVVRPDVATTVSLRLSDVTVPEVMDIAADLYGLDITRSGRLYRVAADQVQTRLFPIDYLHFKRRGGSETRVSSGQVSSSRSNREGAGSNDNNEDNETRNLVGTTISTQTESDFWRDIRDALNMIVGGDNGQVVVNPGAGLVMVRAGADDLRLVENYLRKTELIMQRQVVLEAKILEVGLNEGYQQGIDWNDVQSSAGRADYFTSQSLGGQQIRTPDIGGLFSATVSAGDFTGLIELLGQQGNVQILSSPRISTVNNQKAVIKVGTDEFFVTDIDFDDNNSAVTATDSTSTSVELTPFFSGISLDVTPQIAEDGAITLHVHPSVSEVADQEKVITIGERDVTLPLARSTVRETDSVIRAESGQIVVIGGLIQNSSEDNNSAVPFFSEIPLLGELFKQRNFESRKSELVILLRPVVANAGQMQADVSASRERMNVLRELLNSSESVKPQPETAPR | failed
15 | MKLSVCTITFRHHLLCFSEIVEWTQRNGFDGVELWGAHARGLMRTHPEYDADWLRSYGLSVPMLSDYLPTDGDITDTRHRAIELCRIAQHWSARKIRTFAGNRPSAQLSREQRRALAGRIGEIAGIVHDHGIRLLVETHPNTLADNVDSTLGLLADANHPGLGINFDALHVWEGGDDPVLARRTLADFIGHYHLKNVRSRDELGVFAPENVYSAAGSRDGMVPLFDGAMDYEGFLASLADETDAEASLEWFGHDCFETLARDRLAIFARSISTRGRRGSAGTQQARLAESRAAGRAASSKGPSCI | failed
16 | MKLIKTIDAVGQVLCHDITQIIPGEFKGRKFKKGHIVKEEDIPVLLSLGKDNLYVWEKSEGMVHENEGALFLKELTAGENLDFSEIKEGKIDFIAACDGLLKIDVDALFDLNCVGEIMMATLHNNFIVNKGLKVAGTRVIPLVIDEKKLEDAKKVVGNRKIVNVVPFKPKKVGIVTTGNEVFYSRIVDKFGPVIEEKVKGFGCEVIGQTICPDDKEIIKSAIKEFISQGAELICCTGGMSVDPDDVTPTAIKETGADLVTYGSPILPGAMFLLAYYGEVPIMGIPGCAMYHKTTVFDIVLSRVLIDEKLDKYDIARYGHGGLCMNCDVCTYPACNFAKILEHHHHHH | failed
17 | MNSGDNIIKKKSFTFAVRIVNLYKVLSSEIKEFVMSKQLLRSGTSVGANIREALNAQSKPGFIHKLAISQKECDETGYTNNVEFESMNTDAIELLKIVRSIIMTSKKNIIHNSLEHHHHHH | failed
18 | MPATAGRVRMPANNRVHSSAALQTHGIWQSAIGYDPYAPTSKEEPKTTQQKTEDPENSYASFQGLLALARITGSNNDEARGSCKKCGRVGHLTFQCRNFLSTKEDKEKDPGAIEAAVLSGLEKIRRGVGKGEVEEVSSEEEEESESSDSDVDSEMERIIAERFGKKKGGSSVKKTSSVRKKKKRVSDESDSDSDSGDRKRRRRSMKKRSSHKRRSLSESEDEEEGRSKRRKERRGRKRDEDDSDESEDEDDRRVKRKSRKEKRRRRSRRNHSDDSDSESSEDDRRQKRRNKVAASSDSEANVSGDDVSRVGRGSSKRSEKKSRKRHHRKERE | failed
19 | MTTEPVDYVSPLVGTQSKHALSTGNTYPAIAMPWGMNFWVAQTGKMGDGWAYTYDADKIRGFKQTHQPSPWINDYGQFAIMPVTGKVVFDQDQRASWFSHKAEVAKPYYYKVYLADHDVTTEIAPTSRAAMFRFTFPESKDSYVVVDAFDNGSYVKVIPEENKIIGYTTKNSGGVPENFKNYFVLVFDKPFTFTAAVTNGNIRPGELEHHHHHH | failed
